The source of these data is PMC9965216.

Broadly, the stoichiometry N is a count of units in the complex or per binding partner.

The test deals with wild-type GroEL chaperonin (GroEL14) (E. coli) (UniProt P0A6F5). Put plainly: SDS-PAGE band intensity + absorption spectrophotometry; purified GroEL14-EGFP population assembled in vivo by coexpression; Coomassie-stained bands of WT GroEL (~60 kDa) and GroEL-EGFP (~90 kDa); absorption at 280 and 489 nm. The conditions noted are these: scale: WT subunits per fusion GroEL-EGFP subunit.
Sequence of wild-type GroEL chaperonin (GroEL14) (E. coli) (P0A6F5 whole entry, the tested form may be a part): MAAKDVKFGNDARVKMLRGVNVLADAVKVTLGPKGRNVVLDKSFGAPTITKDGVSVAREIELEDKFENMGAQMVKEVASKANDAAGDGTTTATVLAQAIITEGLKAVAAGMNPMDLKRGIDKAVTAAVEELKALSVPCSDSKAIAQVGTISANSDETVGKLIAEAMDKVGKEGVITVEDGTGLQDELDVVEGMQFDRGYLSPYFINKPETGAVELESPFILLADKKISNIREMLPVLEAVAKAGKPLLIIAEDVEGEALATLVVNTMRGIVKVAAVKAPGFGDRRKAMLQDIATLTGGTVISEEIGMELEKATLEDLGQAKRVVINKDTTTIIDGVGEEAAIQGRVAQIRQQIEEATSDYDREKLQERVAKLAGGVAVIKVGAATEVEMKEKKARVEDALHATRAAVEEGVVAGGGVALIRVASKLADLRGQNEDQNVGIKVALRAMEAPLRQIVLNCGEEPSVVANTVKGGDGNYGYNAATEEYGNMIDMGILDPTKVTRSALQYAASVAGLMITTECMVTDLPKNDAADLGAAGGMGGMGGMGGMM

“GroEL-EGFP fusion subunit (from UniProt P0A6F5 1-548; P42212 2-238)”: the stoichiometry N came to 12.
